Test results published in the Human Domainome abundance scans (Beltran et al. 2025).
± gives the uncertainty stated by the source.

B1: WW domain-containing transcription regulator protein 1, residues 116 to 162; numbered along this chain, Q9GZV5 (parent)
chain: QSYDVTDELPLPPGWEMTFTATGQRYFLNHIEKITTWQDPRKAMNQP

Variants of: B1
Test: abundance fitness (aPCA) (normalised: wild type 0, dead -1); higher = more abundant; growth selection in yeast, the domain comes from the species named
Details: Homo sapiens

| Variant | abundance fitness |
| --- | --- |
| H30A | -0.152 ± 0.026 |
| R41D | -0.806 ± 0.061 |
| R41W | -0.689 ± 0.069 |
| R41V | -0.518 ± 0.03 |
| R41E | -0.73 ± 0.05 |
| R41I | -0.603 ± 0.094 |
| R41Y | -1.11 ± 0.43 |
| R41Q | -0.447 ± 0.074 |
| Q24P | -0.846 ± 0.075 |
| Q24K | -0.14 ± 0.052 |
| Q24H | -0.552 ± 0.1 |
| Q24Y | -0.424 ± 0.065 |
| Q24T | -0.178 ± 0.04 |
| Q24I | -0.226 ± 0.11 |
| Q24F | -0.623 ± 0.037 |
| Q24S | -0.174 ± 0.025 |
| Q24L | -0.364 ± 0.041 |
| Q24A | -0.124 ± 0.045 |
| F19C | -0.274 ± 0.066 |
| F19K | -0.047 ± 0.045 |
| F19H | -0.385 ± 0.13 |

| Variant | abundance fitness |
| --- | --- |
| F19D | -0.319 ± 0.046 |
| F19G | -0.425 ± 0.027 |
| F19M | -0.185 ± 0.047 |
| F19E | -0.017 ± 0.03 |
| M44L | -0.012 ± 0.03 |
| M44R | -0.06 ± 0.032 |
| M44T | -0.028 ± 0.031 |
| M44Y | 0.014 ± 0.042 |
| M44H | -0.085 ± 0.061 |
| M44Q | -0.014 ± 0.036 |
| M44I | -0.244 ± 0.059 |
| M44P | -0.068 ± 0.027 |
| P13C | -0.222 ± 0.044 |
| P13D | -0.012 ± 0.043 |
| P13Q | 0.026 ± 0.037 |
| P13H | -0.014 ± 0.03 |
| P13K | -0.084 ± 0.04 |
| P13E | -0.043 ± 0.039 |
| P13R | -0.082 ± 0.028 |
| P13V | -0.058 ± 0.029 |
| N45Y | 0.039 ± 0.051 |

| Variant | abundance fitness |
| --- | --- |
| N45A | -0.018 ± 0.025 |
| N45V | -0.056 ± 0.024 |
| N45M | -0.023 ± 0.045 |
| N45W | -0.043 ± 0.041 |
| N45R | -0.109 ± 0.028 |
| P47L | 0.053 ± 0.48 |
| P47T | -0.148 ± 0.043 |
| P47H | -0.577 ± 0.32 |
| I31W | -0.08 ± 0.067 |
| I31Y | -0.166 ± 0.1 |
| I31S | -0.182 ± 0.099 |
| I31P | -0.331 ± 0.23 |
| I31F | -0.14 ± 0.16 |
| I34Q | -0.158 ± 0.028 |
| I34Y | -0.172 ± 0.054 |
| I34P | -0.813 ± 0.034 |
| I34M | -0.15 ± 0.045 |
| I34E | -0.265 ± 0.028 |
| I34K | -0.35 ± 0.067 |
| I34T | -0.047 ± 0.048 |
| D4G | -0.198 ± 0.036 |

| Variant | abundance fitness |
| --- | --- |
| D4C | 0.049 ± 0.045 |
| D4Q | -0.404 ± 0.053 |
| D4I | -0.189 ± 0.063 |
| D4Y | 0.048 ± 0.057 |
| D4T | -0.162 ± 0.048 |
| D4N | 0.053 ± 0.033 |
| D4L | -0.147 ± 0.031 |
| D4H | -0.207 ± 0.061 |
| P40R | -0.999 ± 0.063 |
| P40L | -0.987 ± 0.06 |
| P40H | -0.988 ± 0.17 |
| P40A | -0.767 ± 0.077 |
| P40T | -0.857 ± 0.04 |
| F27G | -0.613 ± 0.048 |
| F27T | -0.793 ± 0.067 |
| F27W | -0.13 ± 0.049 |
| F27K | -0.818 ± 0.2 |
| F27P | -0.946 ± 0.13 |
| F27L | -0.841 ± 0.046 |
| F27A | -0.777 ± 0.034 |
| F27Q | -0.977 ± 0.14 |
